Assay results: patent US20020090651A1

Target: Xenopus FGF receptor-1 (Xenopus laevis) (UniProt P22182)
Assay: cell-based or functional assay

Sequence of UniProt P22182 (P22182 21-812): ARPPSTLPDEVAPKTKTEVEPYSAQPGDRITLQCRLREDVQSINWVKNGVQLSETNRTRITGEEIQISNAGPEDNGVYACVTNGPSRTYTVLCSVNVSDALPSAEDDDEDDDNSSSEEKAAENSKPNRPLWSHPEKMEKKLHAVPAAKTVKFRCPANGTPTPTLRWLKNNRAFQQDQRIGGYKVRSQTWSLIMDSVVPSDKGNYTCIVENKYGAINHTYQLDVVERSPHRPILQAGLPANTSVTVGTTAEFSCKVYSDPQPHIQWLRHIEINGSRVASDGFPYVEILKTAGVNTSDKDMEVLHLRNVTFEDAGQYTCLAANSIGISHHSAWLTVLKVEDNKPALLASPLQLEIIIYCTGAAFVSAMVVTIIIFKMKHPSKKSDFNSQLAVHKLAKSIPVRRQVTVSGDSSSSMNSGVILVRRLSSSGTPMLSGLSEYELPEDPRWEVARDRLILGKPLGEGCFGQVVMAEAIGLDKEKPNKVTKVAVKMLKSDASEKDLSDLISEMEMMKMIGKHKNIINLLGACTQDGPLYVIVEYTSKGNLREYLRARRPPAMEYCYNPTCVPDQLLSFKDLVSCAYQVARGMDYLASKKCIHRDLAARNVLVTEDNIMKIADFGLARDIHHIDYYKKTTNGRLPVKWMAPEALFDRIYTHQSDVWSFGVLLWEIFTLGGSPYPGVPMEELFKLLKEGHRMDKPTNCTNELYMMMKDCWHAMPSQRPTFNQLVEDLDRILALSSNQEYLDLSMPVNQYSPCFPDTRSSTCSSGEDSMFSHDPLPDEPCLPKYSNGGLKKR

Ca2+ release (efflux) of Xenopus oocytes co-injected with ligand and FGF receptor mRNAs	Substance
2 fold	FRL-2 protein (ligand)
3 fold	Xenopus bFGF (basic fibroblast growth factor), without a signal sequence (from UniProt P12226 1-155) (ligand)
